Assay [1] deals with human ferroportin (FPN), wild type, reconstituted in lipid nanodisc (human, UniProt Q9NP59). The assay can be described thus: cryo-EM structure.
Assay [2] has as its target Rhodamine green-hepcidin (human). In words: fluorescence polarisation.
For assay [3] the target is unchanged. In words: fluorescence polarisation. This is another data set of the same source. In general terms: In fluorescence polarisation assays a small probe gives low polarisation when free and higher when bound to something large.
Assay [4] shares this target. In words: fluorescence polarisation. This is another data set of the same source.
For assay [5] the target is unchanged. In words: fluorescence polarisation. This is another data set of the same source.

Read-outs that look alike come from different tables or passages of the source.

B1: Fab45D8 (Fab, V domains shown)
VH: EVQLQESGPGLAKPSQTLSLTCSVTGSSITSDYWNWIRKFPGNKLEYMGYISYSGSTYYNPSLKSQISITRDTSKNHYYLQLNSVTTEDTATYYCARQGLRNWYFDVWGTGTTVTVSS
VL: DIVLTQSPASLPVSLGQRATISCRASKSVSASAYSYMHWYQQKPGQPPKPLIYLASNLESGVPARFSGSGSGTDFTLNIHPVEEEDAATYYCQHNRELPYTFGGGTKLEIK
As for B1, the binding result in assay [1] is “binds”.

B2: human ferroportin (FPN), wild type, reconstituted in lipid nanodisc (natural protein)
chain: MTRAGDHNRQRGCCGSLADYLTSAKFLLYLGHSLSTWGDRMWHFAVSVFLVELYGNSLLLTAVYGLVVAGSVLVLGAIIGDWVDKNARLKVAQTSLVVQNVSVILCGIILMMVFLHKHELLTMYHGWVLTSCYILIITIANIANLASTATAITIQRDWIVVVAGEDRSKLANMNATIRRIDQLTNILAPMAVGQIMTFGSPVIGCGFISGWNLVSMCVEYVLLWKVYQKTPALAVKAGLKEEETELKQLNLHKDTEPKPLEGTHLMGVKDSNIHELEHEQEPTCASQMAEPFRTFRDGWVSYYNQPVFLAGMGLAFLYMTVLGFDCITTGYAYTQGLSGSILSILMGASAITGIMGTVAFTWLRRKCGLVRTGLISGLAQLSCLILCVISVFMPGSPLDLSVSPFEDIRSRFIQGESITPTKIPEITTEIYMSNGSNSANIVPETSPESVPIISVSLLFAGVIAARIGLWSFDLTVTQLLQENVIESERGIINGVQNSMNYLLDLLHFIMVILAPNPEAFGLLVLISVSFVAMGHIMYFRFAQNTLGNKLFACGPDAKEVRKENQANTSVV
The Kd is the equilibrium constant for the complex coming apart. As for B2, the Kd was found to be 210 nM in assay [2], 2.5 nM in assay [3], 7.8 nM in assay [4] and 7.7 nM in assay [5].

For the origin of these results see doi:10.1101/2020.03.16.993006 (bioRxiv, 2020).
